Where a chain is given by its changes, count along the chain named. Where two headings read alike, the source gives them in different places.

Holding throughout (assay): cell-based or functional assay
Assay [1] has as its target T1, V5-, His-tagged recombinant human PCSK9 protein (human, UniProt Q8NBP7 31-692).
In assay [2] the target is T1, V5-, His-tagged recombinant human PCSK9 …. This is another data set of the same source.
For assay [3] the target is unchanged. The source holds these as a separate data set.
Assay [4] shares this target. This is another data set of the same source.
The target is the same in assay [5]. This is another data set of the same source.

T1 sequence (Q8NBP7 31-692 limits assumed): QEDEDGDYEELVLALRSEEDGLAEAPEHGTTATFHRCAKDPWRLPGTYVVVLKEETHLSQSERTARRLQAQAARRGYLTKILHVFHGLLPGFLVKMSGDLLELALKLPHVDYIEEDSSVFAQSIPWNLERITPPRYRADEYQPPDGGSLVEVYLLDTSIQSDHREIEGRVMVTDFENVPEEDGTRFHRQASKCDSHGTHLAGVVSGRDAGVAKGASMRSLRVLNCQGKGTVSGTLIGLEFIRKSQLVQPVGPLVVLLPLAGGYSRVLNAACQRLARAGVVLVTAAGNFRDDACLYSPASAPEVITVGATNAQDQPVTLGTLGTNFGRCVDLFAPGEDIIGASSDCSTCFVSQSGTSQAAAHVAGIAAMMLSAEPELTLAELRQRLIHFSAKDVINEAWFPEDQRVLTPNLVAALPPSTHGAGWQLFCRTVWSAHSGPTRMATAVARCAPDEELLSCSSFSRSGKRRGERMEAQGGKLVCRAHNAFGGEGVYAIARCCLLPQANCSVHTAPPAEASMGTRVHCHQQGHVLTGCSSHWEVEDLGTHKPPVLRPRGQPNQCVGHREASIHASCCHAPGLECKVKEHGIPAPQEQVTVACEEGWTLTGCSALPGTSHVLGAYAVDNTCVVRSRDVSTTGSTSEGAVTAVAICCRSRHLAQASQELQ

B1: 3BX5C01 (Fab, V domains shown)
VH: QVQLVQSGAEVKKPGESLKISCKGSGYSFTSYGISWVRQMPGKGLEWMGMIDPSDSFTTYSPSFQGQVTISADKSISTAYLQWSSLKASDTAMYYCARGYYFTYALQPMDHWGQGTLVTVSS
VL: DIELTQPPSVSVAPGQTARISCSGDNLRDYIVHWYQQKPGQAPVLVIYDDSNRPSGIPERFSGSNSGNTATLTISGTQAEDEADYYCGFDNGGDIDVFGGGTKLTVLG
In the case of B1, the “IC50 for reversing the PCSK9-dependent loss of cellular diI-LDL uptake (Exopolar assay; Fab titrated against PCSK9 fixed at 25 µg/ml)” value in assay [1] turned out to be 1.25 µM.

B2: 3CX2A06 (Fab, V domains shown)
VH: QVQLVQSGAEVKKPGESLKISCKGSGYSFSNFWIAWVRQMPGKGLEWMGIIDPSDSWTRYSPSFQGQVTISADKSISTAYLQWSSLKASDTAMYYCARGDGQDFDNWGQGTLVTVSS
VL: DIQMTQSPSSLSASVGDRVTITCRASQNINSYLNWYQQKPGKAPKLLIYAASSLQSGVPSRFSGSGSGTDFTLTISSLQPEDFAVYYCLQNYDLPNTFGQGTKVEIKR
Consider B2, for which the “IC50 for reversing the PCSK9-dependent loss of cellular diI-LDL uptake (Exopolar assay; Fab titrated against PCSK9 fixed at 25 µg/ml)” value in assay [2] is 107 nM.

B3: 3CX3D02 (Fab, V domains shown)
VH: QVQLVQSGAEVKKPGESLKISCKGSGYSFTNSWIGWVRQMPGKGLEWMGIIYPSDSYTIYSPSFQGQVTISADKSISTAYLQWSSLKASDTAMYYCARGGGYYYALMDVWAQGTLVTVSS
VL: B2 VL with N28T, N30S, S31T, Y32W, V85T, N91D, Y92S, D93S, N96L
As to B3, in assay [3], the “IC50 for reversing the PCSK9-dependent loss of cellular diI-LDL uptake (Exopolar assay; Fab titrated against PCSK9 fixed at 25 µg/ml)” value was determined as 269 nM.

B4: 1CX1G08 (Fab, V domains shown)
VH: QVQLVESGGGLVQPGGSLRLSCAASGFTFSDYWVSWVRQAPGKGLEWVSFISYDGSSTYYADSVKGRFTISRDNSKNTLYLQMNSLRAEDTAVYYCARTYFEGVDVWGQGTLVTVSS
VL: DIELTQPPSVSVAPGQTARISCSGDNIGTYYVHWYQQKPGQAPVLVIYDDSNRPSGIPERFSGSNSGNTATLTISGTQAEDEADYYCGTWDNTSFNLVFGGGTKLTVLG
On to B4, for which, in assay [4], the “IC50 for reversing the PCSK9-dependent loss of cellular diI-LDL uptake (Exopolar assay; Fab titrated against PCSK9 fixed at 25 µg/ml)” value stood at 267 nM.

B5: 3CX4B08 (Fab, V domains shown)
VH: QVQLVESGGGLVQPGGSLRLSCAASGFTFSNYTMNWVRQAPGKGLEWVSFISSSSSETYYADSVKGRFTISRDNSKNTLYLQMNSLRAEDTAVYYCARGYGDMVDLWGQGTLVTVSS
VL: DIELTQPPSVSVAPGQTARISCSGDSIPTYYVAWYQQKPGQAPVLVIYSDTDRPSGIPERFSGSNSGNTATLTISGTQAEDEADYYCQSFDNHGYHVFGGGTKLTVLG
Take B5: in assay [5], the “IC50 for reversing the PCSK9-dependent loss of cellular diI-LDL uptake (Exopolar assay; Fab titrated against PCSK9 fixed at 25 µg/ml)” value is 127 nM.

(Values after US20120082680A1 (Merck Sharp & Dohme, published 2012).)
